# Source: the RNAGym collection of RNA variant scans (doi:10.7554/elife.80360)
# B1: HDV Ribozyme (parent)
# chain: GGCCGGCAUGGUCCCAGCCUCCUCGCUGGCGCCGGCUGGGCAACAUUCCGAGGGGACCGUCCCCUCGGUAAUGGCGAAUGGGACCCA
# Variants of: B1
# Assay: self-cleavage, relative activity (ratio to wild type); higher = more cleavage; co-transcriptional
row,Variant,self-cleavage
1,C66G C85A,1.02
2,C66G C85U,0.933
3,C66U A70G,0.903
4,C66U A70U,0.919
5,C66U A70C,0.712
6,G67A A77G,0.712
7,C66U G81C,0.277
8,G67A A83U,0.359
9,G68U G76U,1.09
10,U69C A78G,0.831
11,G67A C84G,0.369
12,G67A C84U,0.658
13,G67A C84A,0.831
14,U69G U79C,0.326
15,U69C C84G,0.875
16,U69C C84A,1.09
17,G67U U72C,0.53
18,U69G G80C,0.219
19,G67A G73U,0.227
20,G67A G73C,0.13
21,G68A C75G,0.0875
22,G67C U72C,0.147
23,G67C U72A,0.682
24,G67U C75A,0.0426

row,Variant,self-cleavage
1,G67A U72C,0.539
2,U69G A78G,0.569
3,G67A A78C,0.0963
4,G67A A78G,0.604
5,G67A A78U,0.234
6,G67C A71G,0.743
7,G67A G68C,0.707
8,G67C C85U,0.92
9,G67U A78C,0.223
10,G67U A78G,0.791
11,C66G G68U,0.812
12,G68C C75U,0.272
13,G68U A87C,1.01
14,G67A G74A,0.403
15,G67A G74C,0.132
16,G67A U79G,0.807
17,G67C,0.976
18,G67A,0.967
19,G67U,0.999
20,U69G U72C,0.485
21,U69G C86G,0.692
22,U69G C86A,0.917
23,G68U C84U,0.511
24,G68U C84A,0.816

row,Variant,self-cleavage
1,G68U A70G,0.95
2,C66G G74C,0.199
3,G68A A78U,0.277
4,G68A A78C,0.0733
5,C66U U72A,0.525
6,C66U U72C,0.518
7,C66U C86U,1.15
8,C66U C86G,0.772
9,G68C C85U,0.892
10,G68A G76U,1.14
11,G68A G76C,0.88
12,G68U U72C,0.237
13,C66U G67C,1.16
14,G67C G74A,0.415
15,G67C G74U,0.332
16,G67C C86A,0.972
17,G67C C86U,0.979
18,G68C A71C,0.554
19,U69A G74C,0.297
20,U69A G74A,0.511
21,C66U U79A,0.869
22,C66U U79G,0.453
23,G68A C86G,1.07
24,C66G U79G,0.772

row,Variant,self-cleavage
1,U69G A71G,1.16
2,G68U G82C,0.215
3,C66G G82U,0.485
4,C66G G82C,0.0959
5,G67U C85G,0.831
6,G67U C85A,0.831
7,G67C A77G,0.508
8,C66U A77U,0.501
9,U69A G82C,0.554
10,U69C A71U,1.01
11,G67A A70G,0.712
12,U69A U79A,0.665
13,U69G A77U,0.375
14,U69G A70U,0.95
15,U69G A70G,0.767
16,G68A G73A,0.463
17,G68A G73U,0.251
18,G68A G73C,0.257
19,U69A C84G,0.578
20,G68A U72A,0.396
21,U69A C85U,0.831
22,G67U G74U,0.453
23,U69C A87G,1.1
24,G68U G80C,0.253

row,Variant,self-cleavage
1,G68U C85G,1.07
2,U69G G81A,0.469
3,G68C G80A,0.421
4,G68C G74U,0.394
5,G68A C85U,0.95
6,C66U A83C,0.298
7,U69C,1.02
8,U69G,0.981
9,U69A,0.977
10,U69G G76U,1.01
11,G67C A87G,0.961
12,U69A G81A,0.425
13,U69G A87U,1.06
14,U69C G81A,0.323
15,C66U A71U,0.936
16,G67C A83G,0.597
17,C66U U69A,0.831
18,C66U U69C,0.92
19,G68C G81U,0.123
20,G68C A83C,0.332
21,U69C U79A,0.684
22,U69C C75U,0.0573
23,G68A G82A,0.287
24,U69A A83U,0.427

row,Variant,self-cleavage
1,U69A A83C,0.499
2,G68C C84U,0.796
3,G68C A78C,0.237
4,C66U C84A,0.909
5,C66U C84U,0.683
6,G68U U79G,0.374
7,G68U U79A,0.928
8,U69A A77C,0.199
9,C66U G74A,0.451
10,C66U C85G,0.923
11,C66U C85U,0.888
12,U69G C75A,0.107
13,G68U C86G,0.945
14,U69C G82A,0.246
15,C66G U69C,0.898
16,U69A A70C,0.745
17,G67C C84U,0.523
18,G67C C84G,0.499
19,G68U G81C,0.223
20,U69A C75A,0.119
21,U69A C75G,0.138
22,C66G C84A,0.923
23,G67U G73C,0.437
24,G67A G76A,0.975

row,Variant,self-cleavage
1,G68U A83U,0.629
2,G68U A83G,0.407
3,G67U A70C,0.987
4,C66G G80A,0.338
5,G68C U79A,0.705
6,G68C A77C,0.185
7,G67C G76C,1.09
8,G67U A83G,0.412
9,U69A A87U,0.913
10,G67A A71G,1.05
11,G68A U69C,0.782
12,U69C G80A,0.305
13,G68A G81U,0.124
14,U69A G80A,0.434
15,G68A C84G,0.475
16,G68A C84U,0.872
17,G68C G76A,1.04
18,U69C G73A,0.653
19,G68A U79G,0.584
20,U69G C85U,0.811
21,G67U A87C,0.925
22,G68C U72G,0.356
23,G67U G81U,0.155
